# Ends that are not written are not given here.
# T1: FAM19A5 mutant M8 (human)
# T1 chain: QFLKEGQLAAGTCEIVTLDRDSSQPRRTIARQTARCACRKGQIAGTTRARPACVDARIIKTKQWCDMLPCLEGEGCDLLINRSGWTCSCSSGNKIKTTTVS
# T2: FAM19A5 mutant M7 (human)
# T2 chain: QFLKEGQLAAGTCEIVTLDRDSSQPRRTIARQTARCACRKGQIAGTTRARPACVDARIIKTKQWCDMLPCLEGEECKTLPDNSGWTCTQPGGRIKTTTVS
# T3: FAM19A5 mutant M6 (human)
# T3 chain: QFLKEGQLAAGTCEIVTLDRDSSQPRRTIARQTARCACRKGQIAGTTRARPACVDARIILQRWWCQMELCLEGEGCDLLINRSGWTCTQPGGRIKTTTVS
# T4: FAM19A5 mutant M2 (human)
# T4 chain: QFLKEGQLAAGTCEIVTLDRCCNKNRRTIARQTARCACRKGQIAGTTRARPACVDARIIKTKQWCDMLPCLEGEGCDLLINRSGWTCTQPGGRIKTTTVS
# T5: FAM19A5 epitope fragment F2, BSA-conjugated (human, conjugated to BSA)
# T5 peptide: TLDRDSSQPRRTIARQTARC
# T6: Mutant F5 peptide F5-7 (#7) (human)
# T6 construct: already contained in the entry; also called mutant peptide #7
# T6 peptide: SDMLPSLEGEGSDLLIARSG
# T7: Mutant F5 peptide F5-8 (#8) (human)
# T7 construct: already contained in the entry; also called mutant peptide #8
# T7 peptide: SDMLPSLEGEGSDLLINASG
# T8: Mutant F5 peptide F5-5 (#5) (human)
# T8 construct: already contained in the entry; also called mutant peptide #5
# T8 peptide: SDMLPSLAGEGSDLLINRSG
# T9: Mutant F5 peptide F5-1 (#1) (human)
# T9 construct: already contained in the entry; also called mutant peptide #1
# T9 peptide: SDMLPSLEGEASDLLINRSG
# T10: Mutant F5 peptide F5-2 (#2) (human)
# T10 construct: already contained in the entry; also called mutant peptide #2
# T10 peptide: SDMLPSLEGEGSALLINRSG
# T11: Mutant F5 peptide F5-6 (#6) (human)
# T11 construct: already contained in the entry; also called mutant peptide #6
# T11 peptide: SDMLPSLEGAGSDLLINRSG
# T12: Mutant F5 peptide F5-4 (#4) (human)
# T12 construct: already contained in the entry; also called mutant peptide #4
# T12 peptide: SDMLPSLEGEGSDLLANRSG
# T13: Mutant F5 peptide F5-3 (#3) (human)
# T13 construct: already contained in the entry; also called mutant peptide #3
# T13 peptide: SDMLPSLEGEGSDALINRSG
# T14: FAM19A5 epitope fragment F6, BSA-conjugated (human, conjugated to BSA)
# T14 peptide: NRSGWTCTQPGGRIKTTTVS
# T15: FAM19A5 epitope fragment F1, BSA-conjugated (human, also: conjugated to BSA)
# T15 construct: which number belongs to which fragment is not spelled out
# T15 peptide: QLAAGTCEIVTLDR
# T16: FAM19A5 epitope fragment F3, BSA-conjugated (human, conjugated to BSA)
# T16 peptide: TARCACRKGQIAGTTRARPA
# Assays:
# FAM19A5 mutant M8 = target: T1, FAM19A5 mutant M8; test: ELISA on phage-expressed FAM19A5 mutants M1-M8
# FAM19A5 mutant M7 = target: T2, FAM19A5 mutant M7; test: ELISA on phage-expressed FAM19A5 mutants M1-M8
# FAM19A5 mutant M6 = target: T3, FAM19A5 mutant M6; test: ELISA on phage-expressed FAM19A5 mutants M1-M8
# FAM19A5 mutant M2 = target: T4, FAM19A5 mutant M2; test: ELISA on phage-expressed FAM19A5 mutants M1-M8
# [1] = target: T5, FAM19A5 epitope fragment F2, …; test: ELISA, plate-coated BSA-conjugated FAM19A5 fragments F1-F6
# Experimental: (§1) Binding of the different anti-FAM19A5 antibodies to the BSA-conjugated peptide fragments F1-F6 was determined by Western blot analysis or ELISA assay. For the Western blot analysis, BSA-conjugated FAM19A5 fragments F1-F6 were separated by SDS polyacrylamide gel electrophoresis and transferred to a nitrocellulose membrane by the standard procedure. The membrane was incubated with the anti-FAM19A5 antibody (e.g., 1-65, […], 1-65-scFv-rabbit Fc-SSS), and the antigen-antibody complexes were detected with the appropriate secondary antibody conjugated with horse-radish peroxidase (anti-rabbit IgG (Fc specific)-HRP, 1:4000 dilution). For the ELISA assay, the following protocol was used. FAM19A5 fragment F1-F6 (diluted to 1 μg/mL in 50 mM carbonate buffer (Biosesang) or to 20 μg/mL for high concentration analysis) were used to coat the wells of 96-well immuno plates (Thermo Scientific) (100 μL/well) overnight at 4° C. and then subsequently washed twice in 1×PBS. The plates were then blocked with the blocking buffer (100 μL/well) for 1 hour at room temperature. During the 1-hour incubation, the relavant anti-FAM19A5 antibodies were diluted to 1 μg/mL (or 20 μg/mL for high concentration analysis) in the diluent buffer. Once the plates were washed (2× using 1×PBS), the diluted anti-FAM19A5 antibodies were added to the appropriate wells, and the plates were incubated at room temperature for 1 hour. The plates were subsequently washed for a total of five times using the washing buffer. Next, the ODP substrate (prepared by dissolving one ODP tablet (O-phenylenediamine Dihydrochloride, Thermo) into 9 mL of sterilized deionized water and 1 mL of 10× stable Peroxide Stable buffer (Theromo)) was added to each of the wells, and the color change reaction was allowed to occur for 10 minutes. This reaction was stopped by adding 100 μL of 2N H2SO4 (Daejung) to the wells. The absorption value of each of the wells was detected at 492 nm using a 96-well microplate reader (Molecular Device).
# (§2) As shown in FIGS. 19 and 20A, the anti-FAM19A5 antibody 1-65 bound strongly to fragment F5 as measured by both Western Blot and ELISA assay, respectively.
# [2] = target: T6, Mutant F5 peptide F5-7 (#7); test: ELISA, plate-coated F5 mutant peptides
# [3] = target: T7, Mutant F5 peptide F5-8 (#8); test: ELISA, plate-coated F5 mutant peptides
# [4] = target: T8, Mutant F5 peptide F5-5 (#5); test: ELISA, plate-coated F5 mutant peptides
# [5] = target: T9, Mutant F5 peptide F5-1 (#1); test: ELISA, plate-coated F5 mutant peptides
# [6] = target: T10, Mutant F5 peptide F5-2 (#2); test: ELISA, plate-coated F5 mutant peptides
# [7] = target: T11, Mutant F5 peptide F5-6 (#6); test: ELISA, plate-coated F5 mutant peptides
# [8] = target: T12, Mutant F5 peptide F5-4 (#4); test: ELISA, plate-coated F5 mutant peptides
# [9] = target: T13, Mutant F5 peptide F5-3 (#3); test: ELISA, plate-coated F5 mutant peptides
# [10] = target: T14, FAM19A5 epitope fragment F6, …; test: ELISA, plate-coated BSA-conjugated FAM19A5 fragments F1-F6
# Experimental: as §1, §2
# [11] = target: T15, FAM19A5 epitope fragment F1, …; test: as above
# Experimental: as §1, §2
# [12] = target: T16, FAM19A5 epitope fragment F3, …; test: as above
# Experimental: as §1, §2
Binder,binding result (FAM19A5 mutant M8),binding result (FAM19A5 mutant M7),binding result (FAM19A5 mutant M6),binding result [1],binding result [2],binding result [3],binding result [4],binding result [5],binding result [6],binding result [7],binding result [8],binding result [9],also measured
"Anti-FAM19A5 antibody P2-A03 (antibody, V domains shown) VH: QSVEESGGRLVTPGTPLTLTCTVSGFSLNNYDMSWVRQAPGKGLEYIGFMDTDGSAYYATWAKGRFTISRTSTTVDLKMTSPTTEDTATYFCARRGSSYYGGIDIWGPGTPVTVSL VL: ELDLTQTPASVSEPVGGTVTIKCQASQSIGGNLAWYQQKPGQPPKLLIYRASTLASGVPSRFKGSGSGTDFTLTISDLECADAATYYCQSPAYDPAAYVGNAFGGGTELEIL",no binding,,,,,,,,,,,,
"Anti-FAM19A5 antibody 13B4 (antibody, V domains shown) VH: QVQLQESGPGLVKPSGTLSLNCAVSGGSISSSNWWSWVRQPPGKGLEWIGEIYHGGTTNYNPSLKGRVTMSVDKTKNQFSLRLSSVTAVDTAVYYCARWQLVGGLDVWGQGTTVTVSS VL: SYELTQPLSVSVSPGQTASITCSGDKLGNVYASWYQQKPGQSPTLVIYQDNKRPSGIPERFSGSNSGKTATLTISGTQALDEADYYCQAWDSSTAVFGGGTKLTVL",no binding,binds,no binding,,,,,,,,,,
"Anti-FAM19A5 antibody 3-2 (antibody, V domains shown, also called h3-2; m3-2) VH: not shown VL: ALTQPSSVSANPGETVKITCSGGGSYAGSYYYGWYQQKAPGSAPVTLIYESNKRPSDIPSRFSGSTSGSTATLTITGVQADDEAIYYCGSWDSSNGGIFGAGTTLTVL",,,,binds,,,,,,,,,binding result (FAM19A5 mutant M2): no binding
"Anti-FAM19A5 antibody 13F7 (antibody, V domains shown) VH: QVQLQEWGAGLLKPSETLSLTCAINAESFNGYSWTWIRQTPGKGLEWIGEISHFGSANYNPSLKSRATISADKSKNQFSLKLTSVTAVDTAVYYCARALRGTYSRFYYGMDVWGQGTTVTVSS VL: DIVMTQTPLSLPVAPGEPASISCRSSQSLLHSNGYNYLDWYVQKPGQPPQLLIYLGSNRASGVPDRFSGSGSGTDFTLKISRVEAEDVGVYYCMQARQTPLTFGGGTKVEIK",no binding,binds,,,,,,,,,,,

# More lines, main results first:
binding result (FAM19A5 mutant M8),binding result (FAM19A5 mutant M7),binding result (FAM19A5 mutant M6),binding result [1],binding result [2],binding result [3],binding result [4],binding result [5],binding result [6],binding result [7],binding result [8],binding result [9],Binder,also measured
,,no binding,no binding,binds,no binding,binds,no binding,binds,no binding,binds,binds,"Anti-FAM19A5 antibody P2-C12 (antibody, V domains shown) VH: QSLEESGGRLVTPGTPLTLTCTVSGFSLSTYAVTWVRQAPGKGLEWIGYINWRGGTSYANWAKGRFTISKTSSTTVDLKMTSPTTEDTATYFCARDASSGAAFGSYGMDPWGPGTLVTVSS VL: ELDMTQTPSSVSAAVGGTVTIKCQASQSISSYLSWYQQKPGQPPKLLIYEASKLASGVPSRFSGSGYGTEFTLTISDLECADAATYYCQQGYSSTNVWNAFGGGTNVEIK",binding result [10]: no binding; binding result [11]: no binding; binding result [12]: no binding
no binding,no binding,no binding,,binds,no binding,binds,binds,no binding,binds,no binding,no binding,"Anti-FAM19A5 antibody 1-65 (antibody, V domains shown, also called monoclonal antibody clone 1-65) VH: AVTLDESGGGLQTPGGALSLVCKASGFTFSSYQMGWVRQAPGKGLEWVGVINKSGSDTSYGSAVKGRATISRDNGQSTVRLQLNNLRAEDTGTYFCAKGSASYITAATIDAWGHGTEVIVSS VL: ALTQPSSVSANPGETVKITCSGGGSSGYGYGWYQQKSPSSAPLTVIYWNDKRPSDIPSRFSGSKSGSTHTLTITGVQAEDEAVYFCGNDDYSSDSGYVGVFGAGTTLTVL",

# Reference: patent US20260265360A1 (NEURACLE SCIENCE, published 2026)
